The assay addresses T1, human LEPR (Homo sapiens, UniProt P48357).
T1 construct: introducing DNA plasmids encoding full-length LEPR of different species and STAT3-luciferase reporter gene into HEK293 cells; expressed in transfected cells; host or cells: HEK293 (HEK293-STAT3Luc-hLepR1)
T1 sequence (P48357 22-1165): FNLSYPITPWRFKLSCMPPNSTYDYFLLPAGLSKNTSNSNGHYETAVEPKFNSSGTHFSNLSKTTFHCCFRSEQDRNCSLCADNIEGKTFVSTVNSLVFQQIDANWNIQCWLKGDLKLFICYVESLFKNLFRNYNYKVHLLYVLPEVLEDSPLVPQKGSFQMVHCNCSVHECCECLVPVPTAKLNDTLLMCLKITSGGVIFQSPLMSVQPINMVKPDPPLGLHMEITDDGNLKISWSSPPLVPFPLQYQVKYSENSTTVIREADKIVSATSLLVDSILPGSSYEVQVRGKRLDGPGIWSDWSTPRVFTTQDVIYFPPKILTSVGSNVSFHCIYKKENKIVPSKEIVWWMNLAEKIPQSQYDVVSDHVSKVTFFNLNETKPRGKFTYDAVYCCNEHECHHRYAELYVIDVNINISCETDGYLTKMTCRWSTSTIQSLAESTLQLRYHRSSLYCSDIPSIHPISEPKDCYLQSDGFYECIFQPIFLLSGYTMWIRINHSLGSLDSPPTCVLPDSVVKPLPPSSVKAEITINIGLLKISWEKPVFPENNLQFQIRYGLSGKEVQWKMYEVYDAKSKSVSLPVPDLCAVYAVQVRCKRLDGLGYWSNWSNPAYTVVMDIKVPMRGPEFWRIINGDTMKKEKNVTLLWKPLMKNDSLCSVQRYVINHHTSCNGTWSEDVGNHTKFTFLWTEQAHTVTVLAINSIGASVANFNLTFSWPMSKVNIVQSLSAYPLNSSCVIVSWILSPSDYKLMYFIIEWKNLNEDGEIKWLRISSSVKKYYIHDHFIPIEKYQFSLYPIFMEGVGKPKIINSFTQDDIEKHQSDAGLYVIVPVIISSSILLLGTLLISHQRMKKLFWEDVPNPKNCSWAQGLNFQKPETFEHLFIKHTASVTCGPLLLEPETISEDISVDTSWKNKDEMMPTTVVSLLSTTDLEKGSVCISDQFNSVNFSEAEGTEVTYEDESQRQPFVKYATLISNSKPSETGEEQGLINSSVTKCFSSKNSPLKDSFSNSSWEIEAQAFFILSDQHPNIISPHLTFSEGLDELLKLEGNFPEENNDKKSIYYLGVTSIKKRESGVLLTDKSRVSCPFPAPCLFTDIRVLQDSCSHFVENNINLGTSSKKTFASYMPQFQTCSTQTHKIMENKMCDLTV
Description: STAT3-luciferase reporter assay in HEK293-STAT3Luc-hLepR1 cells. The assay is classed as cell-based. An excerpt: LEPR is a cell surface single-pass transmembrane receptor. Activation of LEPR leads to phosphorylation of intracellular STAT3 (pSTAT3) and subsequent target gene transcription. To measure LEPR activation by anti-LEPR antibodies in the present disclosure, five independent STAT-luciferase reporter cell lines were established by introducing DNA plasmids encoding full-length LEPR of different species and STAT3-luciferase reporter gene into HEK293 cells (Table 4). […]
Before plating the cells for luciferase assays, the poly-D-Lysine coated 96-well plates (Corning Inc, #354651) were rinsed once with phosphate buffered solution (PBS). […] Cell lysing and One-Glo luciferase substrate solution (Promega, #E6120) were then added to each well, and relative luciferase units (RLUs) were measured on a ClarioStar plate reader. For each reporter cell line, positive control LEPR activation was calculated as the average RLUs stimulated by 20 nM recombinant human leptin protein (SEQ ID NO:27) minus the average RLUs of unstimulated cells and was set as maximum LEPR activation (100%). […]

In the case of “human leptin: recombinant human leptin protein (SEQ ID NO:27), positive control”, the concentration for a half-maximal effect (EC50) (STAT3-luciferase, 20 hours, read-out: EC50 (nM) ± SEM) is 0.0491 ± 0.0044 nM. In addition, the “Agonism (%) ± SEM” value (top of fitted curve vs response to 20 nM recombinant human leptin) is on record as 105.83%.
